In publication PMC9396398, “Crystal structure of Ankyrin-G in complex with a fragment of Neurofascin reveals binding mechanisms required for integrity of the axon initial segment” (The Journal of Biological Chemistry, 2022):

Legend:
[1] = target: AnkG R6-16 (UniProt O70511); assay: ITC; VP-ITC at 25 °C; 50 mM Tris, 100 mM NaCl, 1 mM EDTA, 1 mM DTT, pH 7.8; Nfasc proteins (200 μM) in the syringe, AnkG proteins (20 μM) in the cell; one-site binding model
[2] = target: T1, AnkG R1-24 R318A, Q351A (Rattus norvegicus); assay: ITC
T1 chain: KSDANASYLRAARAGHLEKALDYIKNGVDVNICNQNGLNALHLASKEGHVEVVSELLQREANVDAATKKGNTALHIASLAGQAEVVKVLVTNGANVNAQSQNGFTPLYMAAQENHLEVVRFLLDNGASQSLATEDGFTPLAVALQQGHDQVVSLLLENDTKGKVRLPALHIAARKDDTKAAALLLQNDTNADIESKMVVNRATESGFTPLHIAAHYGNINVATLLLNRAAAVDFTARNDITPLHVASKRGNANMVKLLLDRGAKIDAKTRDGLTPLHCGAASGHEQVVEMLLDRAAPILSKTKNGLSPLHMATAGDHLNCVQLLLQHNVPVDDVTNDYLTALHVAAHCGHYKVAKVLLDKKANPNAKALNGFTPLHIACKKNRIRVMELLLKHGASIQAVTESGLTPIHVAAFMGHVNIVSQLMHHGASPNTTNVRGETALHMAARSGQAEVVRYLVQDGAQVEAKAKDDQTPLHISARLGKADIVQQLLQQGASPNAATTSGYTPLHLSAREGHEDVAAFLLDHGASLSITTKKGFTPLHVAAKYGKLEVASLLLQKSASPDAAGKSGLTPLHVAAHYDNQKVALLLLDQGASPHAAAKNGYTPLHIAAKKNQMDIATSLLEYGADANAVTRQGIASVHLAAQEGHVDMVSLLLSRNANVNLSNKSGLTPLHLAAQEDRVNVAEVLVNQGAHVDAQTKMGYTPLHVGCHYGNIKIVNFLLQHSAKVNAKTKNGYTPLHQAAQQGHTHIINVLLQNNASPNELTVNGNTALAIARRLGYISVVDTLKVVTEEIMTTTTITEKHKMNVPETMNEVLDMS

[3] = target: T2, AnkG ANK repeats (residues 38-855, R1-24) (UniProt O70511 38-855); assay: ITC; VP-ITC at 25 °C; 50 mM Tris, 100 mM NaCl, 1 mM EDTA, 1 mM DTT, pH 7.8; Nfasc proteins (200 μM) in the syringe, AnkG proteins (20 μM) in the cell; one-site binding model; settings: both partners purified
T2 construct: Ankyrin-G (AnkG), ANK repeats R1-24, residues 38-855; In human Q12955 the same residues seem to stand 8 lower (I277 here = I269 there); Cloned into a modified pET32a vector; the tag is said to be removed only for the crystallisation proteins; also called AnkG R1-24; Ankyrin-G ankyrin repeats; source: E. coli BL21 (DE3), purified (Ni-NTA, size-exclusion chromatography)
T2 sequence (looked up): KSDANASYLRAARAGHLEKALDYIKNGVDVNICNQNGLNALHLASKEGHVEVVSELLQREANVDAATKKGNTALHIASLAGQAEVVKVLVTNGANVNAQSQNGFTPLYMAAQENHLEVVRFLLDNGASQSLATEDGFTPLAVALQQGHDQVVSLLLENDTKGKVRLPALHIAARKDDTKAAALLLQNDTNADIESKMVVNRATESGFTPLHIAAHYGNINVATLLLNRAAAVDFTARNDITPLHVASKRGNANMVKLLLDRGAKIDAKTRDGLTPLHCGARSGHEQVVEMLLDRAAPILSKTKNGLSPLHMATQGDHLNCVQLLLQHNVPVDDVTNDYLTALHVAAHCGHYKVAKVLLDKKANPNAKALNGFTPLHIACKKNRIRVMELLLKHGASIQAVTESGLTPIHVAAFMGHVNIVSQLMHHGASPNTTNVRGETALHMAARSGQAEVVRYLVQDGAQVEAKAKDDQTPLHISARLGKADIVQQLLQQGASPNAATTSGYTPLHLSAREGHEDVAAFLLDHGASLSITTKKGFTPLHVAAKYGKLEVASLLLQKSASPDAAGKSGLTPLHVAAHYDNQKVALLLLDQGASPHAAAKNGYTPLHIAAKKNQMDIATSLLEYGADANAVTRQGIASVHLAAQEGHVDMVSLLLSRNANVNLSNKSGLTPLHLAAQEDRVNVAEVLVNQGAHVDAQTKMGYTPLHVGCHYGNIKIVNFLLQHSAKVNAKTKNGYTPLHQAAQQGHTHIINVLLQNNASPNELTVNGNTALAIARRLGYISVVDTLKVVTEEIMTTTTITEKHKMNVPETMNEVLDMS

[4] = target: T3, AnkG R8-16 (AnkG 275 to 571) (UniProt O70511 275-571); assay: as above; settings: both partners purified
T3 construct: Ankyrin-G (AnkG), ANK repeats 8-16, residues 275-571 (limits are told for the crystallisation construct); In the crystal it stood fused behind the Nfasc ABD; also called eighth to sixteenth ANK repeats; source: E. coli BL21 (DE3), purified (Ni-NTA, size-exclusion chromatography)
T3 sequence (looked up): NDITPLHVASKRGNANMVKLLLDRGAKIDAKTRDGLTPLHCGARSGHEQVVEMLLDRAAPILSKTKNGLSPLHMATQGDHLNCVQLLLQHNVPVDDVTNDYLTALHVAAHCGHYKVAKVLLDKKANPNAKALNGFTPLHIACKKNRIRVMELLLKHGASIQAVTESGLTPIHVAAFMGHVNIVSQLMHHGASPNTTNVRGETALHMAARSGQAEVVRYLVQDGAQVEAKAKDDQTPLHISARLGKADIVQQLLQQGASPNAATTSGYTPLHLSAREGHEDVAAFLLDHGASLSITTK

AnkG R6-16, sequence (O70511 whole entry): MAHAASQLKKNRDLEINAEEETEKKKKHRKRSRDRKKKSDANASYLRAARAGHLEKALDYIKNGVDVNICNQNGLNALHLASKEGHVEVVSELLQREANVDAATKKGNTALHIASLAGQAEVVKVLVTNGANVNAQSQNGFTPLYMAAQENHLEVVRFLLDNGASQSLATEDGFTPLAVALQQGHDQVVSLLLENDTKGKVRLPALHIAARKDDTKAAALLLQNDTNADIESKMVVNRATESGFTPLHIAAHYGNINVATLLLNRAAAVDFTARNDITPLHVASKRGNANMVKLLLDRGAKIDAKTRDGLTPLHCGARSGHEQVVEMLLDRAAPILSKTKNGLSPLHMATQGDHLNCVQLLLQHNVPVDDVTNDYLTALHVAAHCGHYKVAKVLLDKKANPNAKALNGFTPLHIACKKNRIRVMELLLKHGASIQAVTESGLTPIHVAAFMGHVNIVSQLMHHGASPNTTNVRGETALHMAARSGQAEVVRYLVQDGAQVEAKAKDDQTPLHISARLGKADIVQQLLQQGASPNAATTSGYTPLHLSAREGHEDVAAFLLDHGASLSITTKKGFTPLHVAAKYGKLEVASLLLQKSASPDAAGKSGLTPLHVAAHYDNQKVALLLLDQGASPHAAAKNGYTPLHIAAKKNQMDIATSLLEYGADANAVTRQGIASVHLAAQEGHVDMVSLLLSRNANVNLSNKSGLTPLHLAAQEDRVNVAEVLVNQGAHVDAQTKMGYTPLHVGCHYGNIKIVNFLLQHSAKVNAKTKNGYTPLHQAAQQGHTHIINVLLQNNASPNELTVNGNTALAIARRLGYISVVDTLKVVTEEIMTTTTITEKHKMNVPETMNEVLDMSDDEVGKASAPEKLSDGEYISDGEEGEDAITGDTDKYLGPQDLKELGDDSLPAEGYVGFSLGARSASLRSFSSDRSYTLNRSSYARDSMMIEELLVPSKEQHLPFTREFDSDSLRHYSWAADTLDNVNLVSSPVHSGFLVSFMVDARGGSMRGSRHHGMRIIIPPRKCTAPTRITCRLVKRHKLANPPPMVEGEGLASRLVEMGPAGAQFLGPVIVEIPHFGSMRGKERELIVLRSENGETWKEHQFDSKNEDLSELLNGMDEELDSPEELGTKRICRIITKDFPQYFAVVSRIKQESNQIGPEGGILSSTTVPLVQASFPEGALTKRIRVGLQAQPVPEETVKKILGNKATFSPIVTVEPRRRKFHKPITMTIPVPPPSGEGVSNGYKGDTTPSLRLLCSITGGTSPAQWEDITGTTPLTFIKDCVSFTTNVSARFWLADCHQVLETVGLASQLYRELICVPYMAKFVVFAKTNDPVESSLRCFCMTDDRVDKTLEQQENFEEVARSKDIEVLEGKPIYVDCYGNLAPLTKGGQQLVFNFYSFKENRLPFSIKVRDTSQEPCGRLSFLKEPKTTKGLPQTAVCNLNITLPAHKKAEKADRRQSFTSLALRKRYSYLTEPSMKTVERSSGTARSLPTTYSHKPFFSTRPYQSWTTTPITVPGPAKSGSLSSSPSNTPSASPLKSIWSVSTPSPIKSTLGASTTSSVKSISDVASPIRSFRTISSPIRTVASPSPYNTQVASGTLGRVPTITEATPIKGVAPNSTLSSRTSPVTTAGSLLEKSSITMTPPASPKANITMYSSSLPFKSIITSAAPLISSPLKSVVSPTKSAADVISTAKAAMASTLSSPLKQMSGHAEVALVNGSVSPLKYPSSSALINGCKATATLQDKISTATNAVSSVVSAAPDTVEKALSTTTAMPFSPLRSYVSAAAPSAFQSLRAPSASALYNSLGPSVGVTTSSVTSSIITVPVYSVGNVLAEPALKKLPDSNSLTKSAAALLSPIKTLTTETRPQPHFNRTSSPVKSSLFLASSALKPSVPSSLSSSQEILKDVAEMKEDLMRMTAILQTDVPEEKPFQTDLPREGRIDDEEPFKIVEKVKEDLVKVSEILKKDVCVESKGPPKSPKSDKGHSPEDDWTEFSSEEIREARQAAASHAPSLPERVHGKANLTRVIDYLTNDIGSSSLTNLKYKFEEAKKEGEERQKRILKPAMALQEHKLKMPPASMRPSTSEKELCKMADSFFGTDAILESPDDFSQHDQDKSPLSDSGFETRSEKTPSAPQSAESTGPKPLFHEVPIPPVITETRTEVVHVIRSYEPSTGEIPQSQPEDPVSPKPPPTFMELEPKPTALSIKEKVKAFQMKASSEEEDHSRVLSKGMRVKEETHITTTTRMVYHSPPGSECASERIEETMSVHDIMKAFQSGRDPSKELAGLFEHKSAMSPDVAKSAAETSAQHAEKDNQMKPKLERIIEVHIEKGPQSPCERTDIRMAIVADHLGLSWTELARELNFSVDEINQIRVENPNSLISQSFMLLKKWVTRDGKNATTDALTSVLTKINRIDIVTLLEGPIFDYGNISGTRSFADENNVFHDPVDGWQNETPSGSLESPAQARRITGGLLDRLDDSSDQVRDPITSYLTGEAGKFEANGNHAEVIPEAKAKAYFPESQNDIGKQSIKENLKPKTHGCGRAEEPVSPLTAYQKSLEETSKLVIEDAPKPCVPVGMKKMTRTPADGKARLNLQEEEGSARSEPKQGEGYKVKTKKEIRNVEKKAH

Kd [1]: 290 nM
Kd [2]: 670 nM
Kd [3]: ~220 nM
Kd [4]: ~1200 nM
B1: Nfasc ankyrin-binding domain (ABD, residues 1187-1214) (domain or fragment, UniProt P97685 1187-1214, looked up)
chain: SDDSLVDYGEGGEGQFNEDGSFIGQYTV
notes: also called Nfasc ABD; source: E. coli BL21 (DE3), purified (Ni-NTA, size-exclusion chromatography)
